In article PMC5915679 (Molecular cell, 2017):
No end group written: not given here. FAM = fluorescein amidite

Assays:
human Argonaute-1 [1] = target: T1, human Argonaute-1 (human, UniProt Q9UL18 1-857); assay: fluorescence polarisation
human Argonaute-1 [2] = target: T1, human Argonaute-1; assay: ITC

Row | Binder | binding result (human Argonaute-1 [1]) | Kd (human Argonaute-1 [2]) [nM]
1 | {FAM}-TVDNGTSAWGKPIDSGPSWGEP (peptide, UniProt Q8NDV7-2 820-841, looked up) [N-terminal fluorescein amidite (FAM) labeled hGW182 hook fragment] | binds | 
2 | TVDNGTSAWGKPIDSGPSWGEP (peptide, UniProt Q8NDV7-2 820-841, looked up) [hGW182 (TNRC6A) hook motif] |  | 383
